Measurements: patent US20160291016

Biological target: T1, phosphatidylinositol(4) phosphate 5 kinase type 1 gamma (PIPK1γ) of mouse osteoblasts, O70161
T1 chain: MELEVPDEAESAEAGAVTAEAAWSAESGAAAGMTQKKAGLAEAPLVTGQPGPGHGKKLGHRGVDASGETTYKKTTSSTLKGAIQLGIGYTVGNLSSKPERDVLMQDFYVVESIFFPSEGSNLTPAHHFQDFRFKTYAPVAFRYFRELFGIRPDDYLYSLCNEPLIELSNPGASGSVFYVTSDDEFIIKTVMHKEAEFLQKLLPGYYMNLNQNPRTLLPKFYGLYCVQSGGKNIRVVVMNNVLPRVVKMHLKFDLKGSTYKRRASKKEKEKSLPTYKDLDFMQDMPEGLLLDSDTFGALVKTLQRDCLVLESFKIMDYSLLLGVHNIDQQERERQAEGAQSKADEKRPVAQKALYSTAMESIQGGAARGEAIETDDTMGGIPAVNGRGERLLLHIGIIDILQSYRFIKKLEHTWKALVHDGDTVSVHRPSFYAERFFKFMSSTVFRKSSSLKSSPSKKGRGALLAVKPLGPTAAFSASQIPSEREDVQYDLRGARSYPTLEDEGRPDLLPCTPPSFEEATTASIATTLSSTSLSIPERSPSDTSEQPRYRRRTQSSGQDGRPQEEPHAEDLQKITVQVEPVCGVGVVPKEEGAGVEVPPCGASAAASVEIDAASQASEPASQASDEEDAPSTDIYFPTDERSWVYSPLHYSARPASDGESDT

B1: protein tyrosine phosphatase µ (PTPµ) of mouse osteoblasts (protein)
chain: ETFSGGCLFDEPYSTCGYSQADEDDFNWEQVNTLTKPTSDPWMPSGSFMLVNTSGKPEGQRAHLLLPQLKENDTHCIDFHYFVSSKSNAAPGLLNVYVKVNNGPLGNPIWNISGDPTRTWHRAELAISTFWPNFYQVIFEVVTSGHQGYLAIDEVKVLGHPCTRTPHFLRIQNVEVNAGQFATFQCSAIGRTVAGDRLWLQGIDVRDAPLKEIKVTSSRRFIASFNVVNTTKRDAGKYRCMICTEGGVGISNYAELVVKEPPVPIAPPQLASVGATYLWIQLNANSINGDGPIVAREVEYCTASGSWNDRQPVDSTSYKIGHLDPDTEYEISVLLTRPGEGGTGSPGPALRTRTKCADPMRGPRKLEVVEVKSRQITIRWEPFGYNVTRCHSYNLTVHYGYQVGGQEQVREEVSWDTDNSHPQHTITNLSPYTNVSVKLILMNPEGRKESQELTVQTDEDLPGAVPTESIQGSAFEEKIFLQWREPTQTYGVITLYEITYKAVSSFDPEIDLSNQSGRVSKLGNETHFLFFGLYPGTTYSFTIRASTAKGFGPPATNQFTTKISAPSMPAYEFETPLNQTDNTVTVMLKPAQSRGAPVSVYQIVVEEERPRRTKKTTEILKCYPVPIHFQNASILNSQYYFAAEFPADSLQAAQPFTIGDNKTYNGYWNTPLLPHKSYRIYYQAASRANGETKIDCVRVATKGAVTPKPVPEPEKQTDHTVKIAGVIAGILLFVIIFLGVVLVMKKRKLAKKRKETMSSTRQEMTVMVNSMDKSYAEQGTNCDEAFSFMGTHNLNGRSVSSPSSFTMKTNTLSTSVPNSYYPDETHTMASDTSSLAQPHTYKKREAADVPYQTGQLHPAIRVADLLQHITQMKCAEGYGFKEEYESFFEGQSAPWDSAKKDENRMKNRYGNIIAYDHSRVRLQMLEGDNNSDYINGNYIDGYHRPNHYIATQGPMQETIYDFWRMVWHENTASIIMVTNLVEVGRVKCCKYWPDDTEIYKDIKVTLIDTELLAEYVIRTFAVEKRGIHEIREIRQFHFTGWPDHGVPYHATGLLGFVRQVKSKSPPNAGPLVVHCSAGAGRTGCFIVIDIMLDMAEREGVVDIYNCVRELRSRRVNMVQTEEQYVFIHDAILEACLCGDTSIPASQVRSLYYDMNKLDPQTNSSQIKEEFRTLNMVTPTLRVEDCSIALLPRNHEKNRCMDILPPDRCLPFLITIDGESSNYINAALMDSYKQPSAFIVTQHPLPNTVKDFWRLVLDYHCTSVVMLNDVDPAQLCPQYWPENGVHRHGPIQVEFVSADLEEDIISRIFRIYNASRPQDGHRMVQQFQFLGWPMYRDTPVSKRSFLKLIRQVDKWQEEYNGGEGRTVVHCLNGGGRSGTFCAISIVCEMLRHQRTVDVFHAVKTLRNNKPNMVDLLDQYKFCYEVALEYLNSG
  tyrosine phosphorylation of PIPK1γ (immunoprecipitation with PIPK1γ antibody, blot with phospho-tyrosine antibody): Phosphorylation levels of PIPK1γ were higher in osteoblasts from PTPµ^-/- than in those from WT mice
